From patent US20260021190A1

Experiments:
[1] = target: human insulin receptor type B (IR(B)) (human) (UniProt P06213); assay: cell-based or functional assay
[2] = target: T1, Human macrophage mannose receptor 1 (MRC1) (human) (UniProt P22897); assay: competition with Eu-mannosylated-BSA on captured human MRC1, DELFIA
T1 sequence (looked up): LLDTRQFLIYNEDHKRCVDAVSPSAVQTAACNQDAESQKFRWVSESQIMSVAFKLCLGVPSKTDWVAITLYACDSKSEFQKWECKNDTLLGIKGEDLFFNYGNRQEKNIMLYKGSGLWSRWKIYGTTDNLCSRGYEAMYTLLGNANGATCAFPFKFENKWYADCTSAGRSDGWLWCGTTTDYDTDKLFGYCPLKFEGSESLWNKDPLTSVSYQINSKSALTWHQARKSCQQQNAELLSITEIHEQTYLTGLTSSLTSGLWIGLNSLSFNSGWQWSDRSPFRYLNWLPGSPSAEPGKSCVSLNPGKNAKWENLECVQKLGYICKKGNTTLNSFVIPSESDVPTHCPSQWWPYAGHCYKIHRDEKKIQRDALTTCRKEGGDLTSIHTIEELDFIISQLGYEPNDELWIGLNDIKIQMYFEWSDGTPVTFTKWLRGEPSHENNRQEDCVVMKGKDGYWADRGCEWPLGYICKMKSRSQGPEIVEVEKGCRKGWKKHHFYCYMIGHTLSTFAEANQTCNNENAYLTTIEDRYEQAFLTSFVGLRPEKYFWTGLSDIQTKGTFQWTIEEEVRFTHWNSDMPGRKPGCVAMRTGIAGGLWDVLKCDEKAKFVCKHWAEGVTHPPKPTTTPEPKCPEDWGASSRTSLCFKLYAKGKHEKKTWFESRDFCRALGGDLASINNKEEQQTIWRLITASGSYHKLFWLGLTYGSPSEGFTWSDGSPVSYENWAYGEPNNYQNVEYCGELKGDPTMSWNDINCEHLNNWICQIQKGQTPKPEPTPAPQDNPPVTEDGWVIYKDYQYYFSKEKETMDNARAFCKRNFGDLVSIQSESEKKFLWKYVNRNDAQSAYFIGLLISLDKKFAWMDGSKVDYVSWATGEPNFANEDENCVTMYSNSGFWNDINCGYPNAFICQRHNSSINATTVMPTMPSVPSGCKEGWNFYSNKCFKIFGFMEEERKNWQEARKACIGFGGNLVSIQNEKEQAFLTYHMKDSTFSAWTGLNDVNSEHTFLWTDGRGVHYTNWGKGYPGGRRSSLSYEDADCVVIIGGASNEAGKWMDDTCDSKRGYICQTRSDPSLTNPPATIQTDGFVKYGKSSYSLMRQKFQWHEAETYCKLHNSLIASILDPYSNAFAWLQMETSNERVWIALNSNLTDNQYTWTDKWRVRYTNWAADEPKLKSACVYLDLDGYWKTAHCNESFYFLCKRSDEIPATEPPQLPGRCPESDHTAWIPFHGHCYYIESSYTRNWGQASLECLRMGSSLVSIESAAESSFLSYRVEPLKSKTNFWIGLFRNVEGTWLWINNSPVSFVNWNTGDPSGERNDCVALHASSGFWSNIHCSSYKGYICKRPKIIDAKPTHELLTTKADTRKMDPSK

Sequence of UniProt P06213 (P06213 28-1382): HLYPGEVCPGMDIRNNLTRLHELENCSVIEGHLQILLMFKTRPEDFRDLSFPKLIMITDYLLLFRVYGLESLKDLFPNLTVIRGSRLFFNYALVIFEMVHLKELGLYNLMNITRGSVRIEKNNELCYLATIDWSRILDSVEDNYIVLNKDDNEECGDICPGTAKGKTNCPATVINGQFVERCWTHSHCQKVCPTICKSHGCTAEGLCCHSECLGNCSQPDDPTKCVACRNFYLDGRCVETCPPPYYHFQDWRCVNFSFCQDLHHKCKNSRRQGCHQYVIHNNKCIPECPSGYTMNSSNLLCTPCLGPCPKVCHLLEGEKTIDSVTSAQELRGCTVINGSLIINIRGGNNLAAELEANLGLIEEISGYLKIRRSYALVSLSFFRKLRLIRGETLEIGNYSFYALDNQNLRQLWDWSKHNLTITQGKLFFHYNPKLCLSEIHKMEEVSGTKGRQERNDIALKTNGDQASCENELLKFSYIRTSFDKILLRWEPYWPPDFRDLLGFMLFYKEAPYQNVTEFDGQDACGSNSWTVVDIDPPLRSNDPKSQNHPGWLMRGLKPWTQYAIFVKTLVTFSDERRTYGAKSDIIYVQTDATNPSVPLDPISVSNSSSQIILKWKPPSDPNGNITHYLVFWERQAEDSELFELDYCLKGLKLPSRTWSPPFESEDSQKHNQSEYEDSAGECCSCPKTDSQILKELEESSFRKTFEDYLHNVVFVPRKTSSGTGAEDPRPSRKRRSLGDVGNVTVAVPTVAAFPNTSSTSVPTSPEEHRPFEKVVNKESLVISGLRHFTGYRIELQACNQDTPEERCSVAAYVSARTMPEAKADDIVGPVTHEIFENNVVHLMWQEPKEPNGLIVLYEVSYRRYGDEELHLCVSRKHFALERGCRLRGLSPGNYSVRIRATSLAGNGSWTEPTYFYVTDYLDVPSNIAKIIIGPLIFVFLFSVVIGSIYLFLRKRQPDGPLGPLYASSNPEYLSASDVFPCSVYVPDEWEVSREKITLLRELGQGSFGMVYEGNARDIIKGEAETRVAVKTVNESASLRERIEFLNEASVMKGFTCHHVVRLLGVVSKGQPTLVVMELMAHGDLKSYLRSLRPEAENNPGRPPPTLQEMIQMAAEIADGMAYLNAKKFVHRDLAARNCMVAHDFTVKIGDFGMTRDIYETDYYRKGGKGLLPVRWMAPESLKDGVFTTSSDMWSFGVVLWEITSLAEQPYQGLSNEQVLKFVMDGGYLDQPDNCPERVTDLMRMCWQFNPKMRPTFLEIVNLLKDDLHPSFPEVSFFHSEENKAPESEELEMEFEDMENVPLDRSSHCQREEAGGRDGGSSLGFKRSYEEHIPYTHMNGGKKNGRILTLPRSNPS

In the case of IOC-34 (Lispro) (ligand), the Human pIR IC50 (nM) [1] is reported as 6.36 nM and the IC50 [2] is reported as 82.7 nM.
